Data: US20060160117

B1: HsdR(R124) (protein)
chain: MTHQTHTIAESNNFIVLDKYIKAEPTGDSYQSESDLERELIQDLRNQGYEFISVKSQSAMLANVREQLQNLNGVVFNDSEWRRFTEQYLDNPSDGILDKTRKIHIDYICDFIFDDERLENIYLIDKKNLMRNKVQIIQQFEQAGSHANRYDVTILVNGLPLVQIELKKRGVAIREAFNQIHRYSKESFNSENSLFKYLQLFVISNGTDTRYFANTTKRDKNSFDFTMNWAKSDNTLIKDLKDFTATCFQKHTLLNVLVNYSVFDSSQTLLVMRPYQIAATERILWKIKSSFTAKNWSKPESGGYIWHTTGSGKTLTSFKAARLATELDFIDKVFFVVDRKDLDYQTMKEYQRFSPDSVNGSENTAGLKRNLDKDDNKIIVTTIQKLNNLMKAESDLPVYNQQVVFIFDECHRSQFGEAQKNLKKKFKRYYQFGFTGTPIFPENALGSETTASVFGRELHSYVITDAIRDEKVLKFKVDYNDVRPQFKSLETETDEKKLSAAENQQAFLHPMRIQEITQYILNNFRQKTHRTFPGSKGFNAMLAVSSVDAAKAYYATFKRLQEEAANKSATYKPLRIATIFSFAANEEQNAIGEISDETFDTSAMDSSAKEFLDAAIREYNSHFKTNFSTDSNGFQNYYRDLAQRVKNQDIDLLIVVGMFLTGFDAPTLNTLFVDKNLRYHGLMQAFSRTNRIYDATKTFGNIVTFRDLERSTIDAITLFGDKNTKNVVLEKSYTEYMEGFTDAATGEAKRGFMTVVSELEQRFPDPTSIESEKEKKDFVKLFGEYLRAENILQNYDEFATLKALQQIDLSDPVAVEKFKAEHYVDDEKFAELQTIRLPADRKIQDYRSAYNDIRDWQRREKEAEKKEKSTTDWDDVVFEVDLLKSQEINLDYILGLIFEHNRQNKGKGEMIEEVKRLIRSSLGNRAKEGLVVDFIQQTNLDDLPDKASIIDAFFTFAQREQQREAEALIKEENLNEDAAKRYIRTSLKREYATENGTELNETLPKLSPLNPQYKTKKQAVFQKIVSFIEKFKGVGGKI

Columns and labels:
MTase(R124) = molecular target: T1, MTase(R124) (UniProt P10484)
T1 sequence 1: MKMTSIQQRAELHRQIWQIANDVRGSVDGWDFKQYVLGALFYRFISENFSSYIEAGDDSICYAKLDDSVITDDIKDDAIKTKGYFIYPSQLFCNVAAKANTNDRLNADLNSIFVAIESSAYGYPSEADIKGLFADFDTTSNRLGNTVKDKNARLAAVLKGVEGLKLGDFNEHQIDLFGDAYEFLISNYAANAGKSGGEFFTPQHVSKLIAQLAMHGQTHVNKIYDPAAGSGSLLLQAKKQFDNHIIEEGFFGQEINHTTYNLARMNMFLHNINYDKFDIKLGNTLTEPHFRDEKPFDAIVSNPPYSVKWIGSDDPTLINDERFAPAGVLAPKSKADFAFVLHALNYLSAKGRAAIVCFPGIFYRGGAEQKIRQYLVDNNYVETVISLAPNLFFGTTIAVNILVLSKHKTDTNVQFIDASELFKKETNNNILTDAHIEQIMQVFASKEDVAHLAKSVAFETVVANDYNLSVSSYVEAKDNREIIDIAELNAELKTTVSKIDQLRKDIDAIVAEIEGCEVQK
T1 sequence 2: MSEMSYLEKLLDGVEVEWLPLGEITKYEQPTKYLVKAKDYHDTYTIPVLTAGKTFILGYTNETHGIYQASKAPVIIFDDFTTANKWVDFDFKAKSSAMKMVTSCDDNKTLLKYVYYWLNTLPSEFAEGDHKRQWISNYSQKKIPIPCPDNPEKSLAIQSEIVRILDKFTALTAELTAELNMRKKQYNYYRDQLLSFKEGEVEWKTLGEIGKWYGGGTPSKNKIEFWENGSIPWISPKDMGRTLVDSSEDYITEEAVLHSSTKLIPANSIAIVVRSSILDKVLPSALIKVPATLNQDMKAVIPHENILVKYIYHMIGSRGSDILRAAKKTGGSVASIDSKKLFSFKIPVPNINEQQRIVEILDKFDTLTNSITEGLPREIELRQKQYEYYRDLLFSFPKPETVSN

MTase(R124), P10484 = molecular target: T2, MTase(R124), P10484
T2 chain 1: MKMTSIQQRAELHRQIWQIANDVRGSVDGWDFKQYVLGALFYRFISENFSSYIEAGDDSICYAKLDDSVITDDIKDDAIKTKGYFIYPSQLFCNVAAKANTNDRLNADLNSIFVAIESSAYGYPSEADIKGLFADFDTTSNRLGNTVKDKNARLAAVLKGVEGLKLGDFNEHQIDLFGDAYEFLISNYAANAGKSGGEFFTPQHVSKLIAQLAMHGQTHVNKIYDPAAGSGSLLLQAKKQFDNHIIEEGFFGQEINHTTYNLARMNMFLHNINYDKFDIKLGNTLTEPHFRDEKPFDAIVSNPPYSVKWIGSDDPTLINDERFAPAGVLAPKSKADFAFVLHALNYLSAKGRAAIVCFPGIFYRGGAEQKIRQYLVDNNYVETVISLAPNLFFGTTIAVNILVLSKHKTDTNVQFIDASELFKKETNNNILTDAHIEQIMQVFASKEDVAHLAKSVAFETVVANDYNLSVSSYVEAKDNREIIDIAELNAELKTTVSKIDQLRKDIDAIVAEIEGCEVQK
T2 chain 2: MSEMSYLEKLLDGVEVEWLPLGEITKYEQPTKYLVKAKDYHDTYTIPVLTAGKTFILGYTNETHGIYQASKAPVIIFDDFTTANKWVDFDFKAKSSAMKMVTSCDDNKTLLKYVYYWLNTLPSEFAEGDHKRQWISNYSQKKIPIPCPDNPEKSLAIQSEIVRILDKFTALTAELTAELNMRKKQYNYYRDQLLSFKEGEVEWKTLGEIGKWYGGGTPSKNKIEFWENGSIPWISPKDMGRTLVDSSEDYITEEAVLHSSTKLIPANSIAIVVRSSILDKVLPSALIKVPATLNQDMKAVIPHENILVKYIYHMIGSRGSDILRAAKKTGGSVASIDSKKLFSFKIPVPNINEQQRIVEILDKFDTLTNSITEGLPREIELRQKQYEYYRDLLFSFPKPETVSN

Molecule | DNA cleavage by the hybrid endonuclease (MTase(R124)) | cleavage of pCFD30 plasmid DNA (agarose gel) (MTase(R124), P10484)
HsdR(prrI) | this hybrid enzyme can only cleave DNA in the presence of extremely high concentrations of HsdR(prrI) | –
B1 | – | The R2-complex was found to cleave the plasmid DNA, as expected. No cleavage was observed for the R1-complex
